Here are results for 15 sequences from the DeepSol protein solubility set.

The nature of the data set: soluble on expression in E. coli; label from the status in PepcDB or PDB records.
As for “MDSARALIARGWGVSLVSRCLRVSRAQLHVILRRTDDWMDGRRSRHTDDTDVLLRIHHVIGELPTYGYRRVWALLRRQAELDGMPAINAKRVYRLMRQNALLLERKPAVPPSKRAHTGRVAVKESNQRWCSDGFEFCCDNGERLRVTFALDCCDREALHWAGTTGGFNSETVQDVMLGAVERRFGNDLPSSPVEWLTDNGSCYRANETRQFARMLGLEPKNTAVRSPESNGIAESFVKTIKRDYISIMPKPDGLTAAKNLAEAFEHYNEWHPHSALGYRSPREYLRQRACNGLSDNRCLEI”, the “soluble on expression in E. coli” value is “not soluble”.

Consider “MNEREAKMYELEFPAPDVASDGVDGPTLIIAMQGYADAGLAVEASADHLLSALEHRPVAVFNNDELIDYRSRRPAVTIDHNIVVDANELKLSMDVLRDSNGTPFLLLSGPEPDLRWDAFSQAVADLVRRFGVRRTICIYAAPMTVPHTRPLIVSAHGNSLDLIKHHFSIDSKVTIPGSASLHIERLLNKNNIDVAGYTAHVPHYLSASAYPLATLKLLEAITTSTNLDFPLKTLEADAQKTALQVEEQVAGSQEIESVVKILEQQYDEELEKYRERNPKALEIAEDDLPDADELGEEFERFLANIDEENGSDD”, for which the “soluble on expression in E. coli” value is recorded as “not soluble”. “MLYLNQKPEYSKYDIGDYTYSKVGPTIFSWNDETKLKIGKFCSLGEEVVFLLGGEHRADWITTYPFNALFGEGAHITGHPSSKGDIVVGNDVWIGYQSCISSGVTIGNGAIIGARSVITKDVPPYAIVAGNPAKFVRYRFPQETIDKLESLAWWDWDISVIKGAIPLLLSNKIDEFFTSPEKEST”: the “soluble on expression in E. coli” value was “not soluble”. With “VSEEELKLILAGAEESGAIEPQEEEMIHSILELEETPVREIMTPRVEMVAIEDEATLEDLLALYREHRYSRVPVYRESVDHIVGVAYVQDLLTYYCEEDLKAFKVASIAHPPYFVPENMDAWSLLKELRRRKVHMAIVVDEFGGTAGLVTLEDVIEEIVGEI”, the “soluble on expression in E. coli” value is on record as “not soluble”. The result for “MSLLIETTMTFLCPLCEHPLTLNQNTYACINRHQFDVAKEGYVNLMPVQHKRSKDPGDNKEMTQARRRFLHTGHYAPMREKVATLCQTYLTDRQQTLLDIGCGEGYYTDFFAKALRQQDSEAQIFGLDISKIAIRYAAKRYPECQFAVASSHRLPFANQSLDGVIRIYAPCKDTELERCIKIGGIVITVTPAARHLYQFKQGIYDQVRLHEEQPETLSGFELVEECKLHYPMALNGSEAADLLQMTPFAWRASEDFKHRVSQSDTFECEADFMLRVYRRKEGHHHHHH” reads “soluble”; that for “MGSDKIHHHHHHMLISLEDTNYTLVKEYLEKSVNHHILQRYIDNHNFPIIEKSYHKYLTFESLEEDFTYILKDGIVKQSVLSKYGMEFNLRYVTGLEITSVLNTGYSKDMGEPYNVRIESEKASFYKVRRSAFLKDINEDIELQGYVKDFYHNRLQKSMKKMQCMLTNGRIGAISTQIYDLMTLFGEELPNGQILINFVITNEELGKFCGISTASSVSRILKQLKEKNIIRIDKQHIIITNLDKLKDNIVF”, “not soluble”.

With “MPDESAQVRFLIVGRTGWIANMVAELLEQRGERYAFASFRLEQREACELELDALRPQRVLNCAGVTGRPNVDWCEDHRRETVRSNVLGVLNLADCCASRGIHLTNFATGCLYHYDDGEHRPTAEGGRPFTEDDPPNFFGSYYSRTKAMVEELLRSAFDNVLILRLRMPVSDDLSPRSFVAKIARYEKVVNIPNSMTVLTELLPVALDMSERGLTGVYNFTNPGSISHNEVLELYRKYIDPKFQWKNFTLEEQAKILKAGRSNCELDVRKLLRDNPGAQIREVHAAMEEVFRRMQAKGVKPLAAP”, the “soluble on expression in E. coli” value is “not soluble”. For “MKIGIFTDCYYPQINGVVTSTMNLQKELEKLNHEVYIITTTFPNFKDEDEKHIIRIPSIPFFKWSEFRIGLFLKHTKAYNKVKALNFDIVHTQTEFSMGNFGTFIAKDLNIPCIHTYHTVYEEYTHYISNFGKSPLKKVVRKLSKRYIAHFSGVIAPTEKTRDLLISYGVKNKIYVVPTGINLEKFKKDIPDAETNSLLKSFNIKKDSFKLIFLGRISKEKNIETLINIMPKIVSENNNIQLIIVGDGPDRLELEERVRYLDLQDNVIFTNRIPNDKVPIYYKAADLFISPSKTETQGLTILEAMAAGVPVLVYDDTNIKGLVLHKKTGLLFKENDELLDNIKFALNNKEEIQSYAKEAFKIAEDFSSANFAKKVERIYKELINQ”, the “soluble on expression in E. coli” value is listed as “not soluble”. The result for “MRANIWQILSVSVLFFFGTAIGQAQSRNRTYEAYVKQYADEAIRQMSRYNIPASITIAQALVETGAGASTLASVHNNHFGIKCHKSWTGKRTYRTDDAPNECFRSYSAARESYEDHSRFLLQPRYRPLFKLDREDYRGWATGLQRCGYATNRGYANLLIKMVELYELYALDREKYPSWFHKSYPGSNKKSHQTTKQKQSGLKHEAYFSYGLLYIIAKQGDTFDSLAEEFDMRASKLAKYNDAPVDFPIEKGDVIYLEKKHACSISKHTQHVVRVGDSMHSISQRYGIRMKNLYKLNDKDGEYIPQEGDILRLR” reads “not soluble”; that for “MTDKENFYSGFFLGRLPGSFDSRFLIKVACFQPGKEERNVFELTTDTKREEDYGEMVHFWVDKGPLQNKSFVRFEENYETFFIHENKMFDRIVHTDKDFYVGVNDLPDSDIYIHPDLGKMIDTRSIVTPGKKYNFITFEVKQNENNSFDIEIVGGEVQGKEKNSEEPSAKEKIIQKMEQVHEVMKVEYEYNKNEETANWDVIGHLKLIKFYDKDLTSGLRPVLRLMDNRHVALFKKQRETMPIKMIKVIEVDGIWKDDVNFVPQEGTLLPTDHDEKTVVLLGNDYRHKFERLFKREDVFRLESNNTLTHLKFWQYGLEKI”, “not soluble”. For the sequence “MEEEGSPDIIIVGAGISGLSTAVGLHRLGIRSMVLESSETLRATGFAFTTWFNAWKAMEALGVSQHIRSLHDRLEGWVVGTISAGTPPTEMLFPESEEYESRCVQRKLLLEALAGELPEETIRFSSKVVHIELSGCYKKVHLSDGTILKTKVLVGCDGVYSVVGKWLGFKNPATTARLAIRGLTHFPEGHGFGKRFFQFYGDGVRSGFIPCDHNTVYWFLTHTSTDIDEETNSEILKEFVLNKIKDLPENIKNVVETTDLDSMVMSQLKYRPPWELLWSNITKDNVCVAGDALHPMTPDIGQGGCSAMEDGVILARCLGEAIKAKSLKGETEENEEEGYKRIEEGLKKYAGERKWRSIDLITTAYTVGFIQQSRGKWMNMFRDRFLSSYLSRMLLKKSHFDCGSLVP”, the “soluble on expression in E. coli” value was “soluble”. Take “MSLGEPEELVIGGVFSLSSGTSVEACRQALAGAMAAVEWVNSNGGVNIGGSKVPVRLLQEDDKGDPANAVRLIEYMARQRGVGVMLAPCDPGVLVDAVEAARGYGVVSIVYGDAPASVADPGGKTLLVGAPAEEYFTPVLEMVSILDIQSRNLAIVYQDTGFAAAVAEATRNRAVEQGFVVVLYSAYPPQAGEEELGTLALRLQASNPDVIIAIGGFRDGVELVRAMSSYGVEAKFIAMAVAPSVPEFYSELGALSQAILYPTLWELASKPYTTAEGYEWFGPSREEFYSLFREAIESLGHPVSEPGYHAAMAALAVLAVAKAAEEAGSLDPDAIYESLKNIKIMTFAGPFDLNPETGLQNEREVLVGQWINGRRFTVWPVGQAYATPVYPHEGHHHHHH”: the “soluble on expression in E. coli” value is listed as “soluble”.

With “MDPACASVDNSKSDPLTDSYPQKYRYSFHRNCQRIMLGVNLKRKNSHYTKGATMTATHNHYLAVLGEDFVAQQYANEGYDITARNVSFSVGEIDIIATSPQGEVVFIEVKTRSSSLMDAAEAVTPTKMRKIHRAASKWLQGKPFADIRFDVVAVHVDEYGELDMTRYQGVEHGAC”, the “soluble on expression in E. coli” value is “not soluble”.

On to “EVQLVESGGGLVQPGGSLRLSCAASGFTFTSTGISWVRQAPGKGLEWVGRIYPTNGSTNYADSVKGRFTISADTSKNTAYLQMNSLRAEDTAVYYCARTYGIYDLYVDYTEYVMDYWGQGTLVTVSSASTKGPSVFPLAPSSKSTSGGTAALGCLVKDYFPEPVTVSWNSGALTSGVHTFPAVLQSSGLYSLSSVVTVPSSSLGTQTYICNVNHKPSNTKVDKKVEPKSCDKTHT”, for which the “soluble on expression in E. coli” value is given as “soluble”. As to “MAWDLKVKMLGGNDFLVSVTNSMTVSELKKQIAQKIGVPAFQQRLAHQTAVLQDGLTLSSLGLGPSSTVMLVVQNCSEPLSILVRNERGHSNIYEVFLTQTVDTLKKKVSQREQVHEDQFWLSFEGRPMEDKELLGEYGLKPQCTVIKHLRLRGGGGDQCA”, the “soluble on expression in E. coli” value is listed as “not soluble”.
